In patent publication US6323177, “Interaction of reelin with very low density lipoprotein (VLDL) receptor for screening and therapies” (St. Jude Children's Research Hospital, dated 2001):

Molecular target: Reelin (full length, expressed from pCr1 in 293T cells, conditioned medium) (mouse)
Test: cell binding assay: 293T cells with or without VLDL receptor incubated with Reelin conditioned medium, washed, lysed, Western blot with G10
Experimental: Reelin-VLDL receptor binding assay. 293T cells transfected with or without the VLDL receptor are washed in phosphate buffer saline (PBS) containing divalent cations and distributed into Eppendorf tubes (approximately 10^6 cells/sample). For Reelin binding assays, cells are incubated with conditioned medium containing 20–100 ng of Reelin for 30 min to 2 h at 4° C. or room temperature. Cells are then washed again with PBS and solubilized in […] of TxB buffer (150 mM NaCl, 50 mM Tris-Cl pH7.5, 1% Triton-X, 1 mM EDTA) supplemented with 0.1 mg/ml Aprotinin, with 0.1 mg/m Leupeptin, 20 mM Sodium Fluoride, and 1 mM Sodium Orthovanadate. Cell extracts are clarified by centrifugation at 13,000×g for 10 min at 4° C. and subjected to Western blot analysis to reveal the presence of Reelin retained by the VLDL receptor.
Western blot analysis. Ten µl of cell extract per lane are analyzed by SDS-PAGE on 4–12% minigels (Novex). Proteins are transferred to nitrocellulose membranes and blocked in 3% milk in Tris buffer saline (TBS) for 1 h at room temperature. Proteins bound to the membranes are incubated at 4° C. overnight in antibody diluted in 0.3% milk-TBS supplemented with 0.1% Tween (TBST). Ascites fluids containing the mouse monoclonal G10 antibody (de Bergeyck et al., J. Neurosci. Methods, 82:17–24, 1998) are used at a 1:1000 dilution to detect Reelin. […]

binding result: binds
B1: human very low density lipoprotein (VLDL) receptor, expressed on transfected 293T cells (receptor)
chain: not shown
